# In article PMC10786891, “Massively parallel profiling of RNA-targeting CRISPR-Cas13d”:
# T1: EsCas13d, nuclease-dead (Eubacterium siraeum, UniProt B0MS50, R295A;H300A;R849A;H854A)
# T1 sequence: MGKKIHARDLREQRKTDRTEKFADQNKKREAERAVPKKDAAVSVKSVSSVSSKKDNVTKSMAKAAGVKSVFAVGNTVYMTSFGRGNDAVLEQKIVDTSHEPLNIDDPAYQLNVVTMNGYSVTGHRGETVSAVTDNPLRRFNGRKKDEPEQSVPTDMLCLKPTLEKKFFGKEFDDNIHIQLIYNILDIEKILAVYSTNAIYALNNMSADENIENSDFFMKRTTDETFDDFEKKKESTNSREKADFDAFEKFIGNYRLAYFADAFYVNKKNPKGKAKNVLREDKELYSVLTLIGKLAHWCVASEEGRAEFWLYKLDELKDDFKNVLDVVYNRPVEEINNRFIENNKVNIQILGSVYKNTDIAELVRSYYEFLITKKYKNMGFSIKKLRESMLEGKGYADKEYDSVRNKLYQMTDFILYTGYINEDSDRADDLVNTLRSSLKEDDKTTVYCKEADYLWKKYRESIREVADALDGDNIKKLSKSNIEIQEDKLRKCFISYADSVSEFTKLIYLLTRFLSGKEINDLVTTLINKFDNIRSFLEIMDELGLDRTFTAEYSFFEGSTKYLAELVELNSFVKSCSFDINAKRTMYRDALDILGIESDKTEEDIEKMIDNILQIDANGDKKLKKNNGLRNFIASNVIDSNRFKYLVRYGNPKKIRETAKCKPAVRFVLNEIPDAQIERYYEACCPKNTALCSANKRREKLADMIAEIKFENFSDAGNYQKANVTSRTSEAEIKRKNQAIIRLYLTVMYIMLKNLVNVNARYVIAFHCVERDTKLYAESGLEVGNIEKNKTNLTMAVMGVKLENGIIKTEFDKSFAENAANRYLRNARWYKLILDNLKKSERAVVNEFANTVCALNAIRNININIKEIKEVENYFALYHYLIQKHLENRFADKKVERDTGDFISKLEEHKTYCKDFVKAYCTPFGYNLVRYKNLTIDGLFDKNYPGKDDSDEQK
# Target: T1, EsCas13d, nuclease-dead
# Assay: crRNA (strand 1, pre-loaded); Mg2+; 40 mM Tris-HCl pH 7.5, 150 mM NaCl, 6 mM MgCl2, 1 mM DTT, 0.1% Tween-20, 0.2 mg/ml BSA; 25 C; 10 min per concentration, then washed
# Details: tags: His6-TwinStrep-SUMO cleaved; N-terminal SNAP kept (SNAP-Surface 488); label: 3' end held by stalled T7 RNA polymerase
row,Binder,Kd [nM]
1,target 1 MT 5'PFS UAG 3'PFS ACA (mixed) RNA 1: CACCCGUGCAAAAAUGCAGGGGUCUAAAACUGAGCGGAUAACCUCUCUAUGG RNA 2: GGGAAUGGAUCCACAUCUACGAAUUCUAGCCAUAGAGAGGUUAUCCGCUCAACAAGAUCGGAAGAGCACACGU,31.5 ± 9.5
2,target 1 MT 5'PFS CUU 3'PFS UGC (mixed) RNA 1: CACCCGUGCAAAAAUGCAGGGGUCUAAAACUGAGCGGAUAACCUCUCUAUGG RNA 2: GGGAAUGGAUCCACAUCUACGAAUUCCUUCCAUAGAGAGGUUAUCCGCUCAUGCAGAUCGGAAGAGCACACGU,22 ± 7
3,target 1 MT 5'PFS AGA 3'PFS CGA (mixed) RNA 1: CACCCGUGCAAAAAUGCAGGGGUCUAAAACUGAGCGGAUAACCUCUCUAUGG RNA 2: GGGAAUGGAUCCACAUCUACGAAUUCAGACCAUAGAGAGGUUAUCCGCUCACGAAGAUCGGAAGAGCACACGU,~90
4,target 1 MT 5'PFS UCC 3'PFS CGA (mixed) RNA 1: CACCCGUGCAAAAAUGCAGGGGUCUAAAACUGAGCGGAUAACCUCUCUAUGG RNA 2: GGGAAUGGAUCCACAUCUACGAAUUCUCCCCAUAGAGAGGUUAUCCGCUCACGAAGAUCGGAAGAGCACACGU,~48.5
5,target 1 MT 5'PFS CAC 3'PFS ACA (mixed) RNA 1: CACCCGUGCAAAAAUGCAGGGGUCUAAAACUGAGCGGAUAACCUCUCUAUGG RNA 2: GGGAAUGGAUCCACAUCUACGAAUUCCACCCAUAGAGAGGUUAUCCGCUCAACAAGAUCGGAAGAGCACACGU,~45.5
6,target 1 MT 5'PFS CAC 3'PFS ACU (mixed) RNA 1: CACCCGUGCAAAAAUGCAGGGGUCUAAAACUGAGCGGAUAACCUCUCUAUGG RNA 2: GGGAAUGGAUCCACAUCUACGAAUUCCACCCAUAGAGAGGUUAUCCGCUCAACUAGAUCGGAAGAGCACACGU,21 ± 7.5
7,target 1 MT 5'PFS UGU 3'PFS AAU (mixed) RNA 1: CACCCGUGCAAAAAUGCAGGGGUCUAAAACUGAGCGGAUAACCUCUCUAUGG RNA 2: GGGAAUGGAUCCACAUCUACGAAUUCUGUCCAUAGAGAGGUUAUCCGCUCAAAUAGAUCGGAAGAGCACACGU,~100
8,target 1 MT 5'PFS AGA 3'PFS CGC (mixed) RNA 1: CACCCGUGCAAAAAUGCAGGGGUCUAAAACUGAGCGGAUAACCUCUCUAUGG RNA 2: GGGAAUGGAUCCACAUCUACGAAUUCAGACCAUAGAGAGGUUAUCCGCUCACGCAGAUCGGAAGAGCACACGU,37 ± 11
9,target 1 MT 5'PFS AAA 3'PFS CUG (mixed) RNA 1: CACCCGUGCAAAAAUGCAGGGGUCUAAAACUGAGCGGAUAACCUCUCUAUGG RNA 2: GGGAAUGGAUCCACAUCUACGAAUUCAAACCAUAGAGAGGUUAUCCGCUCACUGAGAUCGGAAGAGCACACGU,22.5 ± 5
10,target 1 MT 5'PFS CAC 3'PFS ACG (mixed) RNA 1: CACCCGUGCAAAAAUGCAGGGGUCUAAAACUGAGCGGAUAACCUCUCUAUGG RNA 2: GGGAAUGGAUCCACAUCUACGAAUUCCACCCAUAGAGAGGUUAUCCGCUCAACGAGAUCGGAAGAGCACACGU,~22
11,target 1 MT 5'PFS GGG 3'PFS CGA (mixed) RNA 1: CACCCGUGCAAAAAUGCAGGGGUCUAAAACUGAGCGGAUAACCUCUCUAUGG RNA 2: GGGAAUGGAUCCACAUCUACGAAUUCGGGCCAUAGAGAGGUUAUCCGCUCACGAAGAUCGGAAGAGCACACGU,~71
12,"target 1 C4A,A14G (mixed) RNA 1: CACCCGUGCAAAAAUGCAGGGGUCUAAAACUGAGCGGAUAACCUCUCUAUGG RNA 2: GGGAAUGGAUCCACAUCUACGAAUUCGUACCAUAGAGGGGUUAUCCGAUCACCGAGAUCGGAAGAGCACACGU",14.8 ± 1.5
13,target 1 MT 5'PFS AGA 3'PFS CGG (mixed) RNA 1: CACCCGUGCAAAAAUGCAGGGGUCUAAAACUGAGCGGAUAACCUCUCUAUGG RNA 2: GGGAAUGGAUCCACAUCUACGAAUUCAGACCAUAGAGAGGUUAUCCGCUCACGGAGAUCGGAAGAGCACACGU,41.5 ± 12.5
